Earlier results as cited in publication PMC9776232.

Molecular target: Amyloid beta (Homo sapiens) (UniProt P05067)
Sequence (P05067 672-711): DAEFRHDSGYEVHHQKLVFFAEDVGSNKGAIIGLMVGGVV

Sequence of L-PGDS (P41222 23-190): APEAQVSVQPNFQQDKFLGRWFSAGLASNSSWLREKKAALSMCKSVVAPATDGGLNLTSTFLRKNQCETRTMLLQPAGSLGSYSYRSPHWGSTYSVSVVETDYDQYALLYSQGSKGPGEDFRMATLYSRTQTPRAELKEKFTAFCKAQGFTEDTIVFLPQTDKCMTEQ

## L-PGDS (from UniProt P41222)
  Kd: 34 nM
